Molecular target: SARS-CoV-2 spike ectodomain trimer (SARS-CoV-2) (UniProt P0DTC2)
Assay: cryo-EM structure

Row | Substance | stoichiometry N (minibinders per spike trimer)
1 | LCB1 (designed binder) | 3
2 | LCB3 (designed binder) | 3
